Laboratory results from publication PMC5013595.

B1: interferon-γ receptor 2 (IFNγR2): Endo H (protein)
parent chain: MRPTLLWSLLLLLGVFAAAAAAPPDPLSQLPAPQHPKIRLYNAEQVLSWEPVALSNSTRPVVYQVQFKYTDSKWFTADIMSIGVNCTQITATECDFTAASPSAGFPMDFNVTLRLRAELGALHSAWVTMPWFQHYRNVTVGPPENIEVTPGEGSLIIRFSSPFDIADTSTAFFCYYVHYWEKGGIQQVKGPFRSNSISLDNLKPSRVYCLQVQAQLLWNKSNIFRVGHLSNISCYETMADASTELQQVILISVGTFSLLSVLAGACFFLVLKYRGLIKYWFHTPPSIPLQIEEYLKDPTQPILEALDKDSSPKDDVWDSVSIISFPEKEQEDVLQTL
B2: interferon-γ receptor 2 (IFNγR2): PNGase F (protein)
parent chain: B1 parent chain
B3: interferon-γ receptor 2 (IFNγR2): N110Q (protein)
parent chain: B1 parent chain
B4: interferon-γ receptor 2 (IFNγR2): N137Q (protein)
parent chain: B1 parent chain
B5: interferon-γ receptor 2 (IFNγR2): N231Q (protein)
parent chain: B1 parent chain
B6: interferon-γ receptor 2 (IFNγR2): N56Q, N110Q, N137Q and N231Q (protein)
parent chain: B1 parent chain

Assay: size-exclusion chromatography
Conditions: glycan lost; control: glycosylated IFNγR2

Question: Which oligomerisation does the source give for B1 here?
Answer: no change

Question: For B2, which oligomerisation is on record?
Answer: increases

Assay: secretion into S2 culture medium
Conditions: glycan lost; control: wild type

Question: Which expression_or_secretion does the source give for B3 here?
Answer: abolishes

Question: Which expression_or_secretion does the source give for B4 here?
Answer: abolishes

Question: For B5, which expression_or_secretion is on record?
Answer: abolishes

Question: For B6, which expression_or_secretion is on record?
Answer: abolishes
